Molecular target: T1, granulocyte colony stimulating factor (G-CSF) (human), P09919
T1 chain: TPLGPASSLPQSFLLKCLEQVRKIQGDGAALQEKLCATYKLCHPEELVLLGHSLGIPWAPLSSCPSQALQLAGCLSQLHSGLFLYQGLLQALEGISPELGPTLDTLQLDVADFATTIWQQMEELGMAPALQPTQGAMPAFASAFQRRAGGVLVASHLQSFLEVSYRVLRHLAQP
Assay: SEC; analytical SEC-HPLC, TSKgel G3000SWXL, mobile phase 0.1 M phosphate pH 2.5, 1 mL/min; 0.3 mg/mL G-CSF in 50 mM citric acid pH 4.25 with or without 1% (w/v) sucrose, mannitol or phenylalanine, before lyophilization; monomer 19.9 min, dimer 18.4 min
Settings: remark: other sources report otherwise

B1: granulocyte colony stimulating factor (G-CSF), P09919-2 31-204 (natural protein)
chain: T1 chain
Work on B1 yielded a percent dimer of 16% and a stoichiometry N of 2.

From publication PMC10988552
